Legend:
Test in all cases: holdup assay
Design in all cases: key: below the threshold = too weak to quantify, mostly under pKd 3.1 to 4
[1] = biological target: PTPN3, P26045
[2] = biological target: T1, TJP3_3, O95049
T1 sequence (O95049 375-456, limits assumed, looked up): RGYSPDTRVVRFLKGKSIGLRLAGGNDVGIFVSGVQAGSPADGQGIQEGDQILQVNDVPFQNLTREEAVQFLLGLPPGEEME

[3] = biological target: NHERF4_2, Q86UT5
[4] = biological target: GRASP, Q7Z6J2
[5] = biological target: T2, DFNB31_1, Q9P202
T2 sequence (Q9P202 135-233, limits assumed, looked up): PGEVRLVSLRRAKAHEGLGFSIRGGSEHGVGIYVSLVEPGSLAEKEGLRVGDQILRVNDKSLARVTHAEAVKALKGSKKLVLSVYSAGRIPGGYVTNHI

[6] = biological target: T3, SHANK1, Q9Y566
T3 sequence (Q9Y566 658-767, limits assumed, looked up): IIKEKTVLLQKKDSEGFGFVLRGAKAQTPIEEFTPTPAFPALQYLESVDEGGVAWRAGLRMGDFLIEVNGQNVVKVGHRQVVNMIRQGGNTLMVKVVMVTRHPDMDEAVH

[7] = biological target: T4, DLG3_2, Q92796
T4 sequence (Q92796 221-321, limits assumed, looked up): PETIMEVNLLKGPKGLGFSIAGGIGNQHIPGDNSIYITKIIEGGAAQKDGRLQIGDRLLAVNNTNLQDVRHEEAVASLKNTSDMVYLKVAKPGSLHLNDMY

[8] = biological target: T5, PTPN13_1, Q12923
T5 sequence (Q12923 1088-1188, limits assumed, looked up): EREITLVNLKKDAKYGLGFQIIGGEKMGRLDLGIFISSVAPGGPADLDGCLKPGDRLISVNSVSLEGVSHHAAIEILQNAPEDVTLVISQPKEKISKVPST

[9] = biological target: T6, ARHGAP21, Q5T5U3
T6 sequence (Q5T5U3 45-169, limits assumed, looked up): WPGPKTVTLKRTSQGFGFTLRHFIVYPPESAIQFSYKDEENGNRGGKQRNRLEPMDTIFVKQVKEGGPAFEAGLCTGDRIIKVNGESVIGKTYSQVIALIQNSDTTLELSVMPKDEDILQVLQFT

[10] = biological target: DLG2_2, Q15700
Sequence of DLG2_2, Q15700 (Q15700 189-283): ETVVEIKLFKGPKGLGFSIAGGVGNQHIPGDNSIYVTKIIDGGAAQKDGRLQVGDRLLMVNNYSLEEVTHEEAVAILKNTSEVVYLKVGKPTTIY

[11] = biological target: T7, MPP2, Q14168
T7 sequence (Q14168 180-250, limits assumed, looked up): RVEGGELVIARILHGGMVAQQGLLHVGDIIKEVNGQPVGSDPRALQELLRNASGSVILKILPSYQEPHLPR

[12] = biological target: T8, DLG3_3, Q92796
T8 sequence (Q92796 374-475, limits assumed, looked up): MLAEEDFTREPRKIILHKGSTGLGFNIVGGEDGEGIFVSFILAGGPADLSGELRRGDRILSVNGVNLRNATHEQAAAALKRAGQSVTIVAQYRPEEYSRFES

[13] = biological target: SCRIB_2, Q14160
Sequence of SCRIB_2, Q14160 (Q14160 857-960): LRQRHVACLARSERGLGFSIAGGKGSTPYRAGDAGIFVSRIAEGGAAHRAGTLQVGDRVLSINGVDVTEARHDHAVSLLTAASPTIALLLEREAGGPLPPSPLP

[14] = biological target: T9, LRRC7, Q96NW7
T9 sequence (Q96NW7 1440-1537, limits assumed, looked up): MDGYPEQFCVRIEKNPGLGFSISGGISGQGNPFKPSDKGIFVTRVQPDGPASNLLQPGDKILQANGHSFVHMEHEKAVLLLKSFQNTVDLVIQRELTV

[15] = biological target: SCRIB_3, Q14160
Sequence of SCRIB_3, Q14160 (Q14160 999-1103): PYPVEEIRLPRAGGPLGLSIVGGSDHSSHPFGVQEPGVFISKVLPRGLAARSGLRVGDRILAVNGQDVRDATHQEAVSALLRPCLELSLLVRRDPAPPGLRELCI

[16] = biological target: Inadl_6, Q8NI35
Sequence of Inadl_6, Q8NI35 (Q8NI35 1058-1167): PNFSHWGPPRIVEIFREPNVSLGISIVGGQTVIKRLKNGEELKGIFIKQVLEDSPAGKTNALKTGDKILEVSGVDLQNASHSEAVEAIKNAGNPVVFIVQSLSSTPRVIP

[17] = biological target: T10, SYNJ2BP, P57105
T10 sequence (P57105 8-110, limits assumed, looked up): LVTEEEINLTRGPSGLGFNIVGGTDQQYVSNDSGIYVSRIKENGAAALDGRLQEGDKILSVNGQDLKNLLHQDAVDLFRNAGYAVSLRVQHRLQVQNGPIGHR

[18] = biological target: T11, SIPA1L2, Q9P2F8
T11 sequence (Q9P2F8 945-1036, limits assumed, looked up): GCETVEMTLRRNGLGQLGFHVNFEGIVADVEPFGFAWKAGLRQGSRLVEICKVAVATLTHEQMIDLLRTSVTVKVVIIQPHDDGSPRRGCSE

[19] = biological target: LNX1_2, Q8TBB1
Sequence of LNX1_2, Q8TBB1 (Q8TBB1 371-470): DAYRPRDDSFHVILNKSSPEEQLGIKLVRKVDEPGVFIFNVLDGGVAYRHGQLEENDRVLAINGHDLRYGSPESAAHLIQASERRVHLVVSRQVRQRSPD

[20] = biological target: PDZRN4_1, Q6ZMN7
Sequence of PDZRN4_1, Q6ZMN7 (Q6ZMN7 213-318): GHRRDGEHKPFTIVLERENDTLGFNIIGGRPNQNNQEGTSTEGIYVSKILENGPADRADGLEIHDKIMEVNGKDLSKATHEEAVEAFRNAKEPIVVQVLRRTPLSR

[21] = biological target: T12, SNTG2, Q9NY99
T12 sequence (Q9NY99 68-166, limits assumed, looked up): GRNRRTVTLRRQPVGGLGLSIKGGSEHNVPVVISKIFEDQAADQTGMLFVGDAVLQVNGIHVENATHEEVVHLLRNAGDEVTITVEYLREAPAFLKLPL

[22] = biological target: DLG4_2, P78352
Sequence of DLG4_2, P78352 (P78352 155-259): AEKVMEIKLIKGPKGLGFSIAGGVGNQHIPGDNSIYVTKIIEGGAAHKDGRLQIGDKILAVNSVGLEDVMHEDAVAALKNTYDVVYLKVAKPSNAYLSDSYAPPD

[23] = biological target: AHNAK1, Q09666
[24] = biological target: SCRIB_1, Q14160
Sequence of SCRIB_1, Q14160 (Q14160 718-814): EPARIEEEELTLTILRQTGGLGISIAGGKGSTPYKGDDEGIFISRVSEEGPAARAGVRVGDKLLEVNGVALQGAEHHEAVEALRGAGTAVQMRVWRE

[25] = biological target: NHERF2_2, Q15599
Sequence of NHERF2_2, Q15599 (Q15599 142-238): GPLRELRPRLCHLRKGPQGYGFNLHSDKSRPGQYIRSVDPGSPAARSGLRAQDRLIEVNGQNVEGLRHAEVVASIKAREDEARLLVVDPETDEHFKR

[26] = biological target: FRMPD3, Q5JV73
Sequence of FRMPD3, Q5JV73 (Q5JV73 12-100): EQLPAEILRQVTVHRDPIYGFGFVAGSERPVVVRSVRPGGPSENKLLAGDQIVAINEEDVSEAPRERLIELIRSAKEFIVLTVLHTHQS

[27] = plain residues with an end cap or a label only (N-terminal biotin on a linker: ahx)
[28] = plain residues with an end cap or a label only (N-terminal biotin on a linker: ado-ado)
[29] = plain residues with an end cap or a label only (N-terminal biotin on a linker: ttds)

Sequence of GRASP, Q7Z6J2 (Q7Z6J2 96-193): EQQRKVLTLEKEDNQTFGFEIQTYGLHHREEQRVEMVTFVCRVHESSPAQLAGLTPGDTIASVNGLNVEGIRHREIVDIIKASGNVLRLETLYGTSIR
Sequence of NHERF4_2, Q86UT5 (Q86UT5 220-308): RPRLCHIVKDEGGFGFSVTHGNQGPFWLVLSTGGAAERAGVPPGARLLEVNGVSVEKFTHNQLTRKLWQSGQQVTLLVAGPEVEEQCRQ
Sequence of PTPN3, P26045 (P26045 505-587): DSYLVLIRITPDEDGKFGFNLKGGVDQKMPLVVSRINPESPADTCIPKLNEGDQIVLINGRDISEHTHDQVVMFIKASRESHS

B1: APC, P25054 (peptide)
chain: HSGSYLVTSV
pKd [1, 27]: 4.64
pKd [2, 27]: below the threshold
pKd [3, 27]: below the threshold
pKd [4, 27]: 5.06
pKd [5, 27]: 3.93
pKd [6, 27]: 4.1
pKd [7, 27]: 5.07
pKd [8, 27]: below the threshold
pKd [9, 27]: below the threshold
pKd [10, 27]: 5.11
pKd [11, 27]: below the threshold
pKd [12, 27]: 4.71
pKd [13, 27]: 4.33
pKd [14, 27]: 4.14
pKd [15, 27]: 4.45
pKd [16, 27]: 3.81
pKd [17, 27]: 4.81
pKd [18, 27]: below the threshold
pKd [19, 27]: 3.79
pKd [20, 27]: below the threshold
pKd [21, 27]: 3.59
pKd [22, 27]: 4.98
pKd [23, 27]: below the threshold
pKd [24, 27]: 5.04
pKd [25, 27]: below the threshold
pKd [26, 27]: below the threshold

B2: NCBP2L, A6PVI3 (peptide)
chain: RGGFGRQTQI
pKd [1, 28]: 4.49
pKd [2, 28]: below the threshold
pKd [3, 28]: below the threshold
pKd [4, 28]: below the threshold
pKd [5, 28]: 4.78
pKd [6, 28]: below the threshold
pKd [7, 28]: 4.68
pKd [8, 28]: 3.71
pKd [9, 28]: below the threshold
pKd [10, 28]: 4.65
pKd [11, 28]: below the threshold
pKd [12, 28]: 3.82
pKd [13, 28]: below the threshold
pKd [14, 28]: below the threshold
pKd [15, 28]: 4.48
pKd [16, 28]: below the threshold
pKd [17, 28]: 4.18
pKd [18, 28]: below the threshold
pKd [19, 28]: below the threshold
pKd [20, 28]: below the threshold
pKd [21, 28]: 3.52
pKd [22, 28]: 4.64
pKd [23, 28]: below the threshold
pKd [24, 28]: 3.61
pKd [25, 28]: below the threshold
pKd [26, 28]: below the threshold

B3: CBP, Q92793 (peptide)
chain: TGDTLEKFVEGL
pKd [1, 29]: below the threshold
pKd [2, 29]: below the threshold
pKd [3, 29]: below the threshold
pKd [4, 29]: below the threshold
pKd [5, 29]: below the threshold
pKd [6, 29]: below the threshold
pKd [7, 29]: below the threshold
pKd [8, 29]: below the threshold
pKd [9, 29]: below the threshold
pKd [10, 29]: below the threshold
pKd [11, 29]: below the threshold
pKd [12, 29]: below the threshold
pKd [13, 29]: below the threshold
pKd [14, 29]: below the threshold
pKd [15, 29]: below the threshold
pKd [16, 29]: below the threshold
pKd [17, 29]: 3.55
pKd [18, 29]: below the threshold
pKd [19, 29]: below the threshold
pKd [20, 29]: below the threshold
pKd [21, 29]: below the threshold
pKd [22, 29]: below the threshold
pKd [23, 29]: below the threshold
pKd [24, 29]: below the threshold
pKd [25, 29]: below the threshold
pKd [26, 29]: below the threshold
